Substitutions are numbered along the chain they refer to. Numbers in names are those of the source. One block for each binder: values may come before it.
Legend:
[1] = target: T1, cynomolgus monkey CD8A on cyno CD8+ T cells (cynomolgus monkey, UniProt P01732 23-235 (human entry)); assay: flow cytometry on cyno CD8+ T cells
T1 construct: also called cyno T-cells; Cyno CD8alpha
Experimental: (§1) A full dose response binding curve was generated for the nineteen selected anti-CD8A FN3 domains. Each candidate was diluted to 20 μM in PBS followed by a 1:3 dilution series to generate either an 11-point or an 18-point dose response curve. Human or cyno CD8+ T cells were incubated with the diluted FN3 domain for 1 hour at 4° C. Cells were washed once with PBS and incubated with an anti-centyrin antibody (PAB25) for 1 hour at 4° C. The cells were washed twice with PBS, followed by incubation with a PE-secondary, anti-CD3-PacB, anti-CD4-APC, and a viability dye. Finally, cells were washed and resuspended in PBS for flow cytometric analysis using a BD Canto Instrument. CD8 T cells were defined as live CD3+CD4− cells. Median fluorescence intensity of the bound Centyrins (PE channel) and % of cells showing positive staining calculated using Cytobank software. Results were graphed using Prism and EC₅₀ values were calculated using the 4 parameter dose response variable slope equation.

[2] = target: T2, human CD8A on primary human CD8+ T cells (human, UniProt P01732 22-235); assay: flow cytometry on human CD8+ T cells
T2 construct: whole, on cells; also called Human T-cells; CD8 alpha
Experimental: as §1

[3] = target: T2, human CD8A on primary human CD8+ T cells; assay: MSD-CAT equilibrium cell binding, primary human CD8 T cells
Experimental: A MesoScale Discovery-Cell Affinity Technology (MSD-CAT) based equilibrium cell-binding assay was performed to determine the affinity of the top six anti-CD8A candidates binding to primary human cytotoxic T cell surface CD8A receptors. Each anti-CD8A FN3 domain at a constant concentration of […] was pre-incubated with 10 different concentrations of primary cytotoxic CD8 T cells (columns 2-11 in a row). Cell viability was checked prior to the binding measurements and a >85% viability was desired for valid analysis. Since these cells were from different donors, in case of donor-to-donor variations, only cells of the same donors were combined together. Each individual anti-CD8A FN3 domain binding was measured in replicates using cells from the same donors. Cells and FN3 domains were incubated overnight at 4° C. on a rotator to reach equilibrium. Following the incubation the cells were spun down along with cell bound anti-CD8A FN3 domains and the unbound (free) anti-CD8A FN3 domains in the supernatants is quantified using MSD assays where biotinylated recombinant hCD8A-Fc protein was captured at 0.6 ug/mL in assay buffer to streptavidin MSD plates overnight ˜16 hours at 4° C. After blocking the plate, supernatant with free anti-CD8A FN3 domains was added to the plate and incubated for 1 hr, then followed by SulfoTag pAb139 (In-house) detection at 1.6 ug/ml. A buffer control without any FN3 domain and hCD8A (plate background binding control) in column 1 and FN3 domain alone control without hCD8A (100% free/unbound) in column 12 were included. Mouse Anti-hCD8A mAb (mIgG1k, BD Biosciences, cat #555364, clone RPA-T8) was included as a positive control. Tencon27 was included in the initial assay validation as a negative control and no significant binding was observed, and therefore, was not included in the later cell binding due to the cell availability. Plates were read immediately on the MSD Sector Imager 6000™ Reader for luminescence levels after adding MSD Read Buffer by diluting 1:4 of stock into H2O.
Raw MSD data were exported and analysed in Prism using a non-linear fit with variable slope function to derive the Bmax and Hillslope values. Only those with converged Bmax values and hillslope within the range of −1.5˜−0.5 (ideal −1.0) will be considered for further analysis.

[4] = target: T3, human CD8A-Fc (recombinant human CD8 alpha fused to Fc fragment of human IgG1) (human, UniProt P01732 22-182, limits assumed); assay: SPR, dissociation rate on recombinant CD8 alpha
T3 construct: SPR ligand, captured by goat anti-human Fc; also called hCD8A-Fc; recombinant CD8 alpha; not shown: linker with flag (and polyhistidine) tag and Fc fragment of human IgG1; depends on which of the two constructs was used

[5] = target: T3, human CD8A-Fc (recombinant human CD8 …); assay: SPR (ProteOn), captured hCD8A-Fc, heterogeneous ligand fit, lower affinity population
Experimental: (§2) Human CD8A-Fc was then captured at five surface densities ranging from 200 to 1200 response units, leaving the 6th channel as empty channel control for GAH-Fc IgG surface. Binding was measured by flowing five different concentrations of anti-CD8A FN3 domains (1 μM diluted in a 3-fold dilution series) as analytes simultaneously in the horizontal orientation over the captured hCD8A-Fc surfaces, with a sixth analyte channel containing only running buffer PBST. All interactions were measured at 100 uL/min flow rate with association and dissociation times being 4, 30 minutes respectively. […] Data analyses were performed using Bio-Rad ProteOn Manager software (version 3.1.0.6). Raw data were double referenced by subtraction of the interspot (empty chip surface, no protein immobilized or captured) signals to correct the non-specific binding of the FN3 domain to the pre-coated GAH-Fc IgG surface, followed by a double referencing using the buffer blank response (to correct for any baseline drift resulting from ligand dissociation over time). […] Given that the GAH-Fc capture of hCD8A-Fc format is the least disruptive relative to other formats in introducing potential experimental artifacts (such as ligand activity loss and/or artificial eptiopes/heterogeneous ligand population due to amine coupling), it is considered that the results from the GAH-Fc capture experiments reported here represent the most reliable ProteOn SPR data, despite the non-conforming 1:1 Langmuir fits observed in many instances. A heterogeneous ligand model was chosen to fit the data assuming two different ligand species, either due to the heterogeneity in the ligand protein population or due to potential different mechanisms for each FN3 domain binding to the 2 hCD8A monomers in the Fc fusion protein.

[6] = target: T3, human CD8A-Fc (recombinant human CD8 …); assay: SPR (ProteOn), captured hCD8A-Fc, heterogeneous ligand fit, higher affinity population
Experimental: as §2

[7] = target: T3, human CD8A-Fc (recombinant human CD8 …); assay: SPR (ProteOn), captured hCD8A-Fc, heterogeneous ligand fit, lower affinity population; lower affinity population, heterogeneous ligand fit
Experimental: Human CD8A-Fc was then captured at five surface densities ranging from 200 to 1200 response units, leaving the 6th channel as empty channel control for GAH-Fc IgG surface. Binding was measured by flowing five different concentrations of anti-CD8A FN3 domains (1 μM diluted in a 3-fold dilution series) as analytes simultaneously in the horizontal orientation over the captured hCD8A-Fc surfaces, with a sixth analyte channel containing only running buffer PBST. All interactions were measured at 100 uL/min flow rate with association and dissociation times being 4, 30 minutes respectively. […] Data analyses were performed using Bio-Rad ProteOn Manager software (version 3.1.0.6). Raw data were double referenced by subtraction of the interspot (empty chip surface, no protein immobilized or captured) signals to correct the non-specific binding of the FN3 domain to the pre-coated GAH-Fc IgG surface, followed by a double referencing using the buffer blank response (to correct for any baseline drift resulting from ligand dissociation over time). […]

human CD8A on cells = target: T4, human CD8A on cells (human, UniProt P01732 22-235); assay: MSD-CAT equilibrium cell-binding assay on primary human cytotoxic CD8 T cells
T4 construct: whole, on cells; also called CD8A receptors on primary human cytotoxic T cells
Experimental: A MesoScale Discovery-Cell Affinity Technology (MSD-CAT) based equilibrium cell-binding assay was performed to determine the affinity of the top six anti-CD8A candidates binding to primary human cytotoxic T cell surface CD8A receptors. Each anti-CD8A FN3 domain at a constant concentration of […] was pre-incubated with 10 different concentrations of primary cytotoxic CD8 T cells (columns 2-11 in a row). Cell viability was checked prior to the binding measurements and a >85% viability was desired for valid analysis. Since these cells were from different donors, in case of donor-to-donor variations, only cells of the same donors were combined together. Each individual anti-CD8A FN3 domain binding was measured in replicates using cells from the same donors. […] Following the incubation the cells were spun down along with cell bound anti-CD8A FN3 domains and the unbound (free) anti-CD8A FN3 domains in the supernatants is quantified using MSD assays where biotinylated recombinant hCD8A-Fc protein was captured at 0.6 ug/mL in assay buffer to streptavidin MSD plates overnight ˜16 hours at 4° C. […] Plates were read immediately on the MSD Sector Imager 6000™ Reader for luminescence levels after adding MSD Read Buffer by diluting 1:4 of stock into H2O.
Raw MSD data were exported and analysed in Prism using a non-linear fit with variable slope function to derive the Bmax and Hillslope values. […]

T1 sequence (P01732 other isoform, or with tags, fused parts or gaps limits assumed): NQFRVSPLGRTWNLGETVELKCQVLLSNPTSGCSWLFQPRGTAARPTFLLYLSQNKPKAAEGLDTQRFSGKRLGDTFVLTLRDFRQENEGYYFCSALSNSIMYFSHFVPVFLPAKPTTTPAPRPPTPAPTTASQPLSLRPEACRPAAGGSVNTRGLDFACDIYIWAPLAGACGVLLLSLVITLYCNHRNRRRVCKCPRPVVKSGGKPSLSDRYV
T3 sequence (P01732 22-182 limits assumed): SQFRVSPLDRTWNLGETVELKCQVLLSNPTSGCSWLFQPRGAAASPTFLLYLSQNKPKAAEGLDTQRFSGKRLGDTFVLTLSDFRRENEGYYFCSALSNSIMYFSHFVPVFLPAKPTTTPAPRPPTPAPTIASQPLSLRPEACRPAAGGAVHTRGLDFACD
T2 sequence (P01732 22-235): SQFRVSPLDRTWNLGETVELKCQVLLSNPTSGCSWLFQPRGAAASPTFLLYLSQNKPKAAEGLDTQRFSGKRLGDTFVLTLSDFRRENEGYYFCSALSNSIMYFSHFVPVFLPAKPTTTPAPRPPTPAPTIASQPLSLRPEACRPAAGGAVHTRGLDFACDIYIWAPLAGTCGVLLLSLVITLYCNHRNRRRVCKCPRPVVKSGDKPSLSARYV
T4 sequence (P01732 22-235): as above

B1: CD8S365 (designed binder)
chain: LPAPKNLVVSRVTEDSARLSWTAPDAAFDSFGILYYEPVDSGEAITLPVPGSCRSYDLTGLKPGTEYWVVITGVKGGAPSTPLGTIFTT
notes: P282ER9P1360_C8 with E54C; the entry holds the mutation
EC50 [1]: 124 nM | EC50 [2]: 556 nM | Kd [3]: 0.167 nM

B2: CD8S369 (designed binder)
chain: LPAPKNLVVSRVTEDSARLSWAKRPGAFDSFLIQYQESEKVGEAIVLTVPGSCRSYDLTGLKPGTEYTVSIYGVDVKYDIDSRPISSNPLSAIFTT
notes: P283AR9P1362_D6 with E54C; the entry holds the mutation
EC50 [1]: 72.3 nM | EC50 [2]: 124 nM | Kd [3]: 2.81 nM

B5: P282DR9P1359_F5 (designed binder)
chain: LPAPKNLVVSRVTEDSARLSWTAPDAAFDSFQIAYPEWPPPGEAIVLTVPGSERSYDLTGLKPGTEYFVIIQGVKGGVESWPLSAIFTT
notes: FN3 domain (Centyrin); purified as His-tagged protein, tag not in the entry
koff [4]: 5.78e-05 s⁻¹ | koff [5]: 6.6e-05 s⁻¹ | kon [5]: 34800 M⁻¹ s⁻¹ | Kd [6]: 0.04 nM | koff [6]: 1.42e-05 s⁻¹ | kon [6]: 380000 M⁻¹ s⁻¹ | Kd [7]: 6.6 nM

B6: CD8S367 (designed binder)
chain: B5 chain with Q32A, P41Q, E53C, I70V, Q72Y, V78S, E79Y, W81A
notes: P282DR9P1359_F7 with E54C; the entry holds the mutation
EC50 [1]: 50.8 nM | EC50 [2]: 194 nM | Kd [3]: 0.225 nM

B8: Tencon27 (designed binder)
chain: LPAPKNLVVSRVTEDSARLSWTAPDAAFDSFLIQYQESEKVGEAIVLTVPGSERSYDLTGLKPGTEYTVSIYGVKGGHRSNPLSAIFTT
notes: negative control scaffold; also called Stabilized Tencon
binding result (human CD8A on cells): no binding

The next lines start with the values.

EC50 [1]: 69.5 nM | EC50 [2]: 163 nM | Kd [3]: 0.123 nM
B3: CD8S366 (designed binder)
chain: LPAPKNLVVSRVTEDSARLSWTAPDAAFDSFWITYPEWPDPGGEAIVLTVPGSCRSYDLTGLKPGTEYFVVIYGVKGGEIYSPLSAIFTT
notes: P282DR9P1359_C5 with E54C; the entry holds the mutation

EC50 [1]: 67.6 nM | EC50 [2]: 209 nM | Kd [3]: 0.869 nM
B4: CD8S370 (designed binder)
chain: LPAPKNLVVSRVTEDSARLSWTAPDAAFDSFAITYIEKEHIEDGEAIVLTVPGSCRSYDLTGLKPGTEYWVPIWGVKGGANSWPLSAIFTT
notes: P282DR9P1359_G7 with E54C; the entry holds the mutation

EC50 [1]: 70 nM | EC50 [2]: 155 nM | Kd [3]: 0.459 nM
B7: CD8S368 (designed binder)
chain: B5 chain with E53C
notes: P282DR9P1359_F5 with E54C; the entry holds the mutation

Reference: patent US20210032312A1 (Janssen / Centocor, published 2021)
